Test results taken from FireProtDB (doi:10.1021/bi027202n).
Where “and” joins values, the source holds several entries; their conditions need not be identical. Equal values may be shown once.

Conditions: Geobacillus stearothermophilus, pH 5.4, CD, sodium phosphate 10 mM, reversible: yes(>90%), whole UniProt chain shown; for denaturant m value / denaturant midpoint (higher = more stable) / unfolding free energy: 25 °C, Urea

B1: Large ribosomal subunit protein bL9 wild type, P02417 (protein)
chain: MKVIFLKDVKGKGKKGEIKNVADGYANNFLFKQGLAIEATPANLKALEAQKQKEQRQAAEELANAKKLKEQLEKLTVTIPAKAGEGGRLFGSITSKQIAESLQAQHGLKLDKRKIELADAIRALGYTNVPVKLHPEVTATLKVHVTEQK
- denaturant m value (sodium chloride 100 mM): 0.72 kcal/mol/M and 0.64 kcal/mol/M
- denaturant midpoint (higher = more stable) (sodium chloride 100 mM): 6.18 M and 3.16 M
- unfolding free energy (sodium chloride 100 mM): 4.45 kcal/mol and 2.02 kcal/mol
- denaturant m value (sodium chloride 750 mM): 0.62 kcal/mol/M and 0.66 kcal/mol/M
- denaturant midpoint (higher = more stable) (sodium chloride 750 mM): 7.76 M and 3.64 M
- unfolding free energy (sodium chloride 750 mM): 4.81 kcal/mol and 2.4 kcal/mol
- Tm (Thermal, sodium chloride 100 mM): 56 °C
